Data: patent US7067474B1, “Agents for treating human illnesses based on β-catenin, and the production and use thereof” (Max-Delbruck-Centrum fur Molekulare Medizin, priority 1998, dated 2006)
Where no end group is shown, it is not given here.

Key:
[1] = biological target: T1, β-catenin (Homo sapiens, UniProt P35222); assay: yeast-2-hybrid system: interaction of LEF-1 fragments with β-catenin (β-galactosidase reporter activity); format: binding; conditions: LEF-1 fragments as Lex-A hybrids
T1 construct: expressed in transfected cells; host or cells: yeast (two-hybrid system, Clontech)
T1 sequence (P35222 1-781): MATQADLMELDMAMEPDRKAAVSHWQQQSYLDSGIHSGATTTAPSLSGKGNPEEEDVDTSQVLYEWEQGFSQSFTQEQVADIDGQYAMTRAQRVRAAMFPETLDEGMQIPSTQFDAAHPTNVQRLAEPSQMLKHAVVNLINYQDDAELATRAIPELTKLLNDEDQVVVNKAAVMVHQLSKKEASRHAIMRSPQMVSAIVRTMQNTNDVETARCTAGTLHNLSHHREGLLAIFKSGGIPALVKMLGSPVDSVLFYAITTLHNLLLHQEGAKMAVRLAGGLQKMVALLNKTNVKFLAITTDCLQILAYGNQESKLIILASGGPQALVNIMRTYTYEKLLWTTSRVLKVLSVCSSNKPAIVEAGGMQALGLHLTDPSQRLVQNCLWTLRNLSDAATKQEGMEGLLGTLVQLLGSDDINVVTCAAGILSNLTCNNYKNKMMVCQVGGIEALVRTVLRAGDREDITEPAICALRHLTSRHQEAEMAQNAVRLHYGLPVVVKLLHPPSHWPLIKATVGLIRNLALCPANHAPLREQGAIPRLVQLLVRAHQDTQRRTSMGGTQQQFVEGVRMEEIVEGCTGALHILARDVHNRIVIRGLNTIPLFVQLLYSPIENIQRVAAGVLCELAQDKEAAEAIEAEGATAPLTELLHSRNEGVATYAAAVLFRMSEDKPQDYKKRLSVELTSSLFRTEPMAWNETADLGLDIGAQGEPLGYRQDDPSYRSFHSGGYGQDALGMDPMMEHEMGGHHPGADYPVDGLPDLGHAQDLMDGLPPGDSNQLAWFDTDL
Procedure: The ‘yeast-2-hybrid system’ was used for identifying the minimum binding domain (FIG. 1). It was possible to limit the minimum binding domain to the N-terminal amino acids 11–27 of LEF-1 which corresponds t) the amino acids 7–29 in TCF-4 (FIG. 2). The interaction of N-terminal LEF-1 fragments with β-catenin was detected by means of activating a lacZ reporter gene (s. example).
The interaction between the partial domains of LEF-1 and β-catenin was analyzed in the yeast-2 hybrid system by determining the activity of β-galactosidase according to information of the producer (Clontech) (FIG. 1). For this purpose the DNA coding for the N-terminal partial domains of LEF-1 was inserted into the cloning site of the Lex-A DNA binding domain which contains vector BTM 116 and checked by sequencing. The DNA fragments of LEF-1 were prepared by a polymerase chain reaction (PCR) and incubation with restriction endonucleases. The DNA coding for β-catenin was cloned into the vector pGAD424 (Clontech) for the activation domain of GAL-4 (Behrens et al. 1996). The β-galactosidase activities of independent experiments were averaged (or comparing the interaction of the hybrids.
The specificity of the interaction of the LEF-1 hybrids with β-catenin was checked by means of the β-galactosidase activity of yeasts producing the LEF hybrids and the GAL-4 activation domain without β-catenin (FIG. 1). The expression of the LEF-1 hybrids was checked in an immunoblot with yeast cell lysates by antibodies (Clontech) as against the Lex-A domain of the hybrids. Equal yeast quantities were used for preparing the lysates after determining the optical density of the cultures.
The interaction of fragments of the binding domain of LEF-1 with β-catenin was analyzed by means of the β-galactosidase reporter activity in the yeast-2-hybrid system. […] Accordingly, the minimum binding domain of LEF-1 for β-catenin consists of 17 amino acids (11–27) showing an acidic character.

[2] = test system: β-catenin/TCF-4 complex; assay: ELISA with synthetic peptides: formation of the β-catenin/TCF-4 complex; format: binding; conditions: synthetic TCF4 peptides, analogous to LEF-1 peptides, which inhibit specifically
[3] = biological target: T2, β-catenin produced recombinantly in bacteria with N-terminal histidine sequence (Homo sapiens (Human), UniProt P35222 2-781); assay: competition ELISA, LEF-1 coated, β-catenin in solution, detection with antibody PA2
T2 construct: Soluble partner in the ELISA (50-100 ng), detected with antibody PA2
T2 sequence: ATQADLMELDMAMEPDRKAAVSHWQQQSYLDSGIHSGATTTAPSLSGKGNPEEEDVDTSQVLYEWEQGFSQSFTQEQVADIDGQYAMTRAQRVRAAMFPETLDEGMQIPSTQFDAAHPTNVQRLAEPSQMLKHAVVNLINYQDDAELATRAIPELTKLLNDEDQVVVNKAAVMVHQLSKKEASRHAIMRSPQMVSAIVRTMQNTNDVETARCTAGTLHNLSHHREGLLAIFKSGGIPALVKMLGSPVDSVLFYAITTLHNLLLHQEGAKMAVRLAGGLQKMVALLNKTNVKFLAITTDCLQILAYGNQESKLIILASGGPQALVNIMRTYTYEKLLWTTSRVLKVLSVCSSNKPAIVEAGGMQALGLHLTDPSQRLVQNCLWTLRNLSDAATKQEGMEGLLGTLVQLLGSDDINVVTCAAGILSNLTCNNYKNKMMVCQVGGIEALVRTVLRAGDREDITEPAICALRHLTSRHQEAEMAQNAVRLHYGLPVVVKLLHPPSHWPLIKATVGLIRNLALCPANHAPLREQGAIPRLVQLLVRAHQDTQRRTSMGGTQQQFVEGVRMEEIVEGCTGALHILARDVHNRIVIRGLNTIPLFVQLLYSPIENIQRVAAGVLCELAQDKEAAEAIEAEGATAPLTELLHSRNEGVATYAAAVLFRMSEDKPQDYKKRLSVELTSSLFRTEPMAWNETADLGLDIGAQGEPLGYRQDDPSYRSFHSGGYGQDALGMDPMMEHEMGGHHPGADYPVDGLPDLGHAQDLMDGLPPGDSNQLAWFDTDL

[4] = biological target: human APC amino acids Ser1259-Asp1400 (APC 20 amino acid repeats) fused to Lex-A (vector BTM 116) (human); assay: yeast 2-hybrid, β-galactosidase reporter; percent of wild type β-catenin
[5] = biological target: human APC amino acids His1012-Glu1215 (APC 15 amino acid repeats) fused to Lex-A (vector BTM 116) (human); assay: as above
[6] = biological target: conductin amino acids Ala342-Arg465 fused to Lex-A (vector BTM 116) (UniProt P0A7C2); assay: as above
[7] = biological target: T3, LEF-1 amino acids 1-99 fused to Lex-A (vector BTM 116) (UniProt P0A7C2 1-202; P27782 1-99); assay: as above
T3 construct: Order of the fusion follows the vector; also called LEF-1/TCF-4
Procedure: (§1) 4. Preparation and testing of mutants of β-catenin modulating the interaction with LEF-1, APC, conductin or E-cadherin The mutagenesis of β-catenin in the armadillo repeats 3–8 was carried out by means of the "mutagenesis kit" of the company Clontech according to the producer's record and the mutants were checked by sequencing (FIG. 5). In all mutants the original amino acid was substituted by alanine. For analyzing the interactions the cDNA of human β-catenin (armadillo repeat 3 up to the C-terminal end of the protein) coding for the amino acids Leu218–Leu7 µl or its mutants was cloned into the fusion vector for the activation domain of Gal-4 (pGAD424, Clontech). The cDNA for the binding domains of the interaction partners was cloned into the Lex-A fusion vector BTM 116. To this end, the cDNA of LEF-1 for the amino acids 1–99, conductin for the amino acids Ala342–ARG465; of human APC for the amino acids His1012–Glu1215 (APC 15 amino acid repeats) and for the amino acids Ser1259Asp 1400 (APC 20 amino acid repeats) and E-cadherin for the amino acids Gin773–Asp884 (cytoplasmatic domain) were amplified with the respective primers PCR. The interaction of the Lex-A hybrids with β-catenin and its mutants was quantified by means of the β-galactosidase reporter activity in the yeast 2-hybrid system (report: "Matchmaker". Clontech) (Tab. 2 and FIG. 6).

[8] = biological target: E-cadherin amino acids Gln773-Asp884 (cytoplasmatic domain) fused to Lex-A (vector BTM 116) (UniProt P0A7C2 1-202; P09803 773-884); assay: as above
Procedure: as §1

Q: How did the “Binding to β-catenin (β-galactosidase reporter activity)” value (“Binding to β-catenin” below) [1] turn out when “Met21 up to Val 56: partial domain of LEF-1 covering Met21 up to Val 56” was run?
A: does not show any binding activity

Q: DLGANDELISFKDE [10–23] was tested. Which “inhibition of formation of the β-catenin/TCF-4 complex” value [2] did it give?
A: Analogous principles apply

Q: GGDDLGANDELISFKDEGEQEEK [7–29] was tested. Which “inhibition of formation of the β-catenin/TCF-4 complex” value [2] did it give?
A: Analogous principles apply

B1: 17–34: LEF-1 fragment amino acids 17–34, Lex-A hybrid (protein)
chain: MKALTARQQEVFDLIRDHISQTGMPPTRAEIAQRLGFRSPNAAEEHLKALARKGVIEIVSGASRGIRLLQEEEEGLPLVGRVAAGEPLLAQQHIEGHYQVDPSLFKPNADFLLRVSGMSMKDIGIMDGDLLAVHKTQDVRNGQVVVARIDDEVTVKRLKKQGNKVELLPENSEFKPIVVDLRQQSFTIEGLAVGVIRNGDWLATDEMIPFKDEGDPQKEK
Q: Which “Binding to β-catenin” value [1] does the source give for B1 here?
A: prevent the interaction

Q: How did the IC50 [3] turn out when GGDPELCATDEMIPFKDEGDPQKEK (peptide, UniProt P27782 10-34, looked up, range 10-34; the legend prints 10-34) [synthetic peptide of the minimum binding domain of LEF-1 (10-34)] was run?
A: 4 µM

B2: human β-catenin (Leu218-Leu781) mutant His 260 to alanine, Gal-4 activation domain fusion (other, not shown: large carriers; small tags and cut ends)
chain: LHNLSHHREGLLAIFKSGGIPALVKMLGSPVDSVLFYAITTLANLLLHQEGAKMAVRLAGGLQKMVALLNKTNVKFLAITTDCLQILAYGNQESKLIILASGGPQALVNIMRTYTYEKLLWTTSRVLKVLSVCSSNKPAIVEAGGMQALGLHLTDPSQRLVQNCLWTLRNLSDAATKQEGMEGLLGTLVQLLGSDDINVVTCAAGILSNLTCNNYKNKMMVCQVGGIEALVRTVLRAGDREDITEPAICALRHLTSRHQEAEMAQNAVRLHYGLPVVVKLLHPPSHWPLIKATVGLIRNLALCPANHAPLREQGAIPRLVQLLVRAHQDTQRRTSMGGTQQQFVEGVRMEEIVEGCTGALHILARDVHNRIVIRGLNTIPLFVQLLYSPIENIQRVAAGVLCELAQDKEAAEAIEAEGATAPLTELLHSRNEGVATYAAAVLFRMSEDKPQDYKKRLSVELTSSLFRTEPMAWNETADLGLDIGAQGEPLGYRQDDPSYRSFHSGGYGQDALGMDPMMEHEMGGHHPGADYPVDGLPDLGHAQDLMDGLPPGDSNQLAWFDTDL
Q: What does the source list for B2?
A: share of the interaction with wild type β-catenin in percent [4]: 40%; share of the interaction with wild type β-catenin in percent [5]: 100%; share of the interaction with wild type β-catenin in percent [6]: 10%; share of the interaction with wild type β-catenin in percent [7]: 50%; share of the interaction with wild type β-catenin in percent [8]: 100%

B3: 11–23: LEF-1 fragment amino acids 11–23, Lex-A hybrid (protein)
chain: MKALTARQQEVFDLIRDHISQTGMPPTRAEIAQRLGFRSPNAAEEHLKALARKGVIEIVSGASRGIRLLQEEEEGLPLVGRVAAGEPLLAQQHIEGHYQVDPSLFKPNADFLLRVSGMSMKDIGIMDGDLLAVHKTQDVRNGQVVVARIDDEVTVKRLKKQGNKVELLPENSEFKPIVVDLRQQSFTIEGLAVGVIRNGDWLGDPELCATDEMIP
Q: For B3, which “Binding to β-catenin” value [1] is on record?
A: prevent the interaction

B4: 11–27: LEF-1 fragment amino acids 11–27, Lex-A hybrid; minimum binding domain for β-catenin (protein)
chain: MKALTARQQEVFDLIRDHISQTGMPPTRAEIAQRLGFRSPNAAEEHLKALARKGVIEIVSGASRGIRLLQEEEEGLPLVGRVAAGEPLLAQQHIEGHYQVDPSLFKPNADFLLRVSGMSMKDIGIMDGDLLAVHKTQDVRNGQVVVARIDDEVTVKRLKKQGNKVELLPENSEFKPIVVDLRQQSFTIEGLAVGVIRNGDWLGDPELCATDEMIPFKDE
Q: With B4 as the molecule, how does the “Binding to β-catenin” value [1] read?
A: does not result in a loss of bond
